Results as given in the supplement of paper PMC11908140.

B1: library; numbered along this chain (parent)
chain: MRKPRAAVGSGHRKQAASQEGRQKHAKNNSQAKPSACDGLARQPEEVVLQASVSSYHLFRDVAEVTAFRGSLLSWYDQEKRDLPWRRRAEDEMDLDRRAYAVWVSEVMLQQTQVATVINYYTGWMQKWPTLQDLASASLEEVNQLWAGLGYYSRGRRLQEGARKVVEELGGHMPRTAETLQQLLPGVGRYTAGAIASIAFGQATGVVDGNVARVLCRVRAIGADPSSTLVSQQLWGLAQQLVDPARPGDFNQAAMELGATVCTPQRPLCSQCPVESLCRARQRVEQEQLLASGSLSGSPDVEECAPNTGQCHLCLPPSEPWDQTLGVVNFPRKASRKPPREESSATCVLEQPGALGAQILLVQRPNSGLLAGLWEFPSVTWEPSEQLQRKALLQELQRWAGPLPATHLRHLGEVVHTFSHIKLTYQVYGLALEGQTPVTTVPPGARWLTQEEFHTAAVSTAMKKVFRVYQGQQPGTCMGSKRSQVSSPCSRKKPRMGQQVLDNFFRSHISTDAHSLNSAAQ

Variants of: B1
Experiment: 8OG:A repair function score (normalized; synonymous = 0, nonsense = -1) (normalized log-likelihood score); higher = more repair activity (WT-like)
Settings: with 8OG:A DNA repair reporter (GFP) in HEK-293 MUTYH KO cells
Experimental: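 Saturation mutagenesis (NNN codon scan) of the MUTYH cDNA (521-aa nuclear isoform NM_001048174.1 / NP_001041639), stably expressed under doxycycline induction in HEK-293 MUTYH knockout cells. Cells were co-transfected with an 8OG:A-bearing GFP repair reporter plus mCherry and sorted 72 h later into GFP+ and GFP− bins, three replicates per tile. The Rosace log2 enrichment (GFP+ vs GFP−) was converted per tile to a normalized function score with synonymous variants centered at 0 and nonsense variants (codons 1-471) at -1; low-abundance variants were removed.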

Point of comparison: MRKPRAAVGSGHRKQAASQEGRQKHAKNNSQAKPSACDGLARQPEEVVLQASVSSYHLFRDVAEVTAFRGSLLSWYDQEKRDLPWRRRAEDEMDLDRRAYAVWVSEVMLQQTQVATVINYYTGWMQKWPTLQDLASASLEEVNQLWAGLGYYSRGRRLQEGARKVVEELGGHMPRTAETLQQLLPGVGRYTAGAIASIAFGQATGVVDGNVARVLCRVRAIGADPSSTLVSQQLWGLAQQLVDPARPGDFNQAAMELGATVCTPQRPLCSQCPVESLCRARQRVEQEQLLASGSLSGSPDVEECAPNTGQCHLCLPPSEPWDQTLGVVNFPRKASRKPPREESSATCVLEQPGALGAQILLVQRPNSGLLAGLWEFPSVTWEPSEQLQRKALLQELQRWAGPLPLTHLRHLGEVVHTFSHIKLTYQVYGLALEGQTPVTTVPPGARWLTQEEFHTAAVSTAMKKVFRVYQGQQPGTCMGSKRSQVSSPCSRKKPRMGQQVLDNFFRSHISTDAHSLNSAAQ [A405L], “8OG:A repair function score” value -0.177. Against it:
- MRKPRAAVGSGHRKQAASQEGRQKHAKNNSQAKPSACDGLARQPEEVVLQASVSSYHLFRDVAEVTAFRGSLLSWYCQEKRDLPWRRRAEDEMDLDRRAYAVWVSEVMLQQTQVATVINYYTGWMQKWPTLQDLASASLEEVNQLWAGLGYYSRGRRLQEGARKVVEELGGHMPRTAETLQQLLPGVGRYTAGAIASIAFGQATGVVDGNVARVLCRVRAIGADPSSTLVSQQLWGLAQQLVDPARPGDFNQAAMELGATVCTPQRPLCSQCPVESLCRARQRVEQEQLLASGSLSGSPDVEECAPNTGQCHLCLPPSEPWDQTLGVVNFPRKASRKPPREESSATCVLEQPGALGAQILLVQRPNSGLLAGLWEFPSVTWEPSEQLQRKALLQELQRWAGPLPATHLRHLGEVVHTFSHIKLTYQVYGLALEGQTPVTTVPPGARWLTQEEFHTAAVSTAMKKVFRVYQGQQPGTCMGSKRSQVSSPCSRKKPRMGQQVLDNFFRSHISTDAHSLNSAAQ [D77C] — higher, -0.0754
- MRKPRAAVGSGHRKQAASQEGRQKHAKNNSQAKPSACDGLARQPEEVVLQASVSSYHLFRDVAEVTAFRGSLLSWYDQEKRDLPWRRRAEDEMDLDRRAYAVWVSEVMLQQTQVATVINYYTGWMQKWPTLQDLASASLEEVNQLWAGLGYYSRGRRLQEGARKVVEELPGHMPRTAETLQQLLPGVGRYTAGAIASIAFGQATGVVDGNVARVLCRVRAIGADPSSTLVSQQLWGLAQQLVDPARPGDFNQAAMELGATVCTPQRPLCSQCPVESLCRARQRVEQEQLLASGSLSGSPDVEECAPNTGQCHLCLPPSEPWDQTLGVVNFPRKASRKPPREESSATCVLEQPGALGAQILLVQRPNSGLLAGLWEFPSVTWEPSEQLQRKALLQELQRWAGPLPATHLRHLGEVVHTFSHIKLTYQVYGLALEGQTPVTTVPPGARWLTQEEFHTAAVSTAMKKVFRVYQGQQPGTCMGSKRSQVSSPCSRKKPRMGQQVLDNFFRSHISTDAHSLNSAAQ [G170P] — lower, -0.872
- MRKPRAAVGSGHRKQAASQEGRQKHAKNNSQAKPSACDGLARQPEEVVLQASVSSYHLFRDVAEVTAFRGSLLSWYDQEKRDLPWRRRAEDEMDLDRRAYAVWVSEVMLQQTQVATVINYYTGWMQKWPTLQDLASASLEEVNQLWAGLGYYSRGRRLQEGARKVVEELGGHMPRTAETLQQLLPGVGRYTAGAIASIAFGQATGVVDGNVARVLCRVRAIGADPSSTLVSQQLWGLAQQLVDPARPGDFNQAAMELGATVCTPQRPLCSQCPVESLCRARQRVEQEQLLASGSLSGSPDVEECAPNTGQCHLCLPPSEPWDQTLGVVNFPRKASRKPPREESSATCVLEQPGALGAQILLVQRPNSGLLAGLWEFPSVTWEPSEQLQRKALLQELQRWAGPLPATHLRHLGEVYHTFSHIKLTYQVYGLALEGQTPVTTVPPGARWLTQEEFHTAAVSTAMKKVFRVYQGQQPGTCMGSKRSQVSSPCSRKKPRMGQQVLDNFFRSHISTDAHSLNSAAQ [V415Y] — lower, -0.275
- MRKPRAAVGSGHRKQAASQEGRQKHAKNNSQAKPSACDGLARQPEEVVLQASVSSYHLFRDVAEVTAFRGSLLSWYDQEKRDLPWRRRAEDEMDLDRRAYAVWVSEVMLQQTQVATVINYYTGWMQKWPTLQDLASASLEEVNQLWAGLGYYSRGRRLQEGARKVVEELGGHMPRTAETLQQLLPGVGRYTAGAIASIAFGQATGVVDGNVARVLCRVRAIGADPSSTLVSQQLWGLCQQLVDPARPGDFNQAAMELGATVCTPQRPLCSQCPVESLCRARQRVEQEQLLASGSLSGSPDVEECAPNTGQCHLCLPPSEPWDQTLGVVNFPRKASRKPPREESSATCVLEQPGALGAQILLVQRPNSGLLAGLWEFPSVTWEPSEQLQRKALLQELQRWAGPLPATHLRHLGEVVHTFSHIKLTYQVYGLALEGQTPVTTVPPGARWLTQEEFHTAAVSTAMKKVFRVYQGQQPGTCMGSKRSQVSSPCSRKKPRMGQQVLDNFFRSHISTDAHSLNSAAQ [A238C] — lower, -0.249
- MRKPRAAVGSGHRKQAASQEGRQKHAKNNSQAKPSACDGLARQPEEVVLQASVSSYHLFRDRAEVTAFRGSLLSWYDQEKRDLPWRRRAEDEMDLDRRAYAVWVSEVMLQQTQVATVINYYTGWMQKWPTLQDLASASLEEVNQLWAGLGYYSRGRRLQEGARKVVEELGGHMPRTAETLQQLLPGVGRYTAGAIASIAFGQATGVVDGNVARVLCRVRAIGADPSSTLVSQQLWGLAQQLVDPARPGDFNQAAMELGATVCTPQRPLCSQCPVESLCRARQRVEQEQLLASGSLSGSPDVEECAPNTGQCHLCLPPSEPWDQTLGVVNFPRKASRKPPREESSATCVLEQPGALGAQILLVQRPNSGLLAGLWEFPSVTWEPSEQLQRKALLQELQRWAGPLPATHLRHLGEVVHTFSHIKLTYQVYGLALEGQTPVTTVPPGARWLTQEEFHTAAVSTAMKKVFRVYQGQQPGTCMGSKRSQVSSPCSRKKPRMGQQVLDNFFRSHISTDAHSLNSAAQ [V62R] — higher, -0.00306
